{
  "source": "the supplement of paper PMC10567573",
  "parents": {"B1": {"name": "RAB11A (parent)", "chain": "AVPTDEARAFAEKNGLSFIETSAL"}},
  "data": [
    {"variants_of": "B1", "assay": "protein stability index of a GFP-peptide fusion (GPS, HEK-293T) (PSI 1-6); higher = more stable", "conditions": "c terminus: a fixed tail appended", "values": [
      {"variant": "AVPTDEIRAFAEKNGLSFIETSAL", "note": "[A7I]", "protein stability index": 2.21},
      {"variant": "AVPTDEARAFAEKNGLDFIETSAL", "note": "[S17D]", "protein stability index": 3.14},
      {"variant": "AVPTDEARAFAEKNGLNFIETSAL", "note": "[S17N]", "protein stability index": 1.56},
      {"variant": "AVPTDEARAFAEKNGLKFIETSAL", "note": "[S17K]", "protein stability index": 3.23},
      {"variant": "AVPTDEARAFAEKNGLWFIETSAL", "note": "[S17W]", "protein stability index": 2.66},
      {"variant": "AVPTDEARAFAEKNGLMFIETSAL", "note": "[S17M]", "protein stability index": 2.81},
      {"variant": "AVPTDEARAFAEKNGLPFIETSAL", "note": "[S17P]", "protein stability index": 4.38},
      {"variant": "EVPTDEARAFAEKNGLSFIETSAL", "note": "[A1E]", "protein stability index": 2.72},
      {"variant": "PVPTDEARAFAEKNGLSFIETSAL", "note": "[A1P]", "protein stability index": 2.38},
      {"variant": "GVPTDEARAFAEKNGLSFIETSAL", "note": "[A1G]", "protein stability index": 2.77},
      {"variant": "CVPTDEARAFAEKNGLSFIETSAL", "note": "[A1C]", "protein stability index": 1.45},
      {"variant": "WVPTDEARAFAEKNGLSFIETSAL", "note": "[A1W]", "protein stability index": 1.8},
      {"variant": "YVPTDEARAFAEKNGLSFIETSAL", "note": "[A1Y]", "protein stability index": 2.23},
      {"variant": "DVPTDEARAFAEKNGLSFIETSAL", "note": "[A1D]", "protein stability index": 2.82},
      {"variant": "MVPTDEARAFAEKNGLSFIETSAL", "note": "[A1M]", "protein stability index": 2.41},
      {"variant": "AVPTDEAREFAEKNGLSFIETSAL", "note": "[A9E]", "protein stability index": 3.13},
      {"variant": "AVPTDEARYFAEKNGLSFIETSAL", "note": "[A9Y]", "protein stability index": 2.11},
      {"variant": "AVPTDEARIFAEKNGLSFIETSAL", "note": "[A9I]", "protein stability index": 2.33},
      {"variant": "AVPTDEARKFAEKNGLSFIETSAL", "note": "[A9K]", "protein stability index": 2.34},
      {"variant": "AVPTDEARRFAEKNGLSFIETSAL", "note": "[A9R]", "protein stability index": 1.96},
      {"variant": "AVPTDEARPFAEKNGLSFIETSAL", "note": "[A9P]", "protein stability index": 2.08},
      {"variant": "AVPTDEARSFAEKNGLSFIETSAL", "note": "[A9S]", "protein stability index": 2.35},
      {"variant": "AVPTDEARAFAEKNGFSFIETSAL", "note": "[L16F]", "protein stability index": 1.91},
      {"variant": "AVPTDEARAFAEKNGVSFIETSAL", "note": "[L16V]", "protein stability index": 3.73},
      {"variant": "AVPTDEARAFAEKNGNSFIETSAL", "note": "[L16N]", "protein stability index": 4.05},
      {"variant": "AVPTDEARAFAEKNGDSFIETSAL", "note": "[L16D]", "protein stability index": 4.87},
      {"variant": "AVPTDEARAFAEKNGKSFIETSAL", "note": "[L16K]", "protein stability index": 4.27},
      {"variant": "ASPTDEARAFAEKNGLSFIETSAL", "note": "[V2S]", "protein stability index": 2.48},
      {"variant": "ADPTDEARAFAEKNGLSFIETSAL", "note": "[V2D]", "protein stability index": 2.74},
      {"variant": "AWPTDEARAFAEKNGLSFIETSAL", "note": "[V2W]", "protein stability index": 2.05},
      {"variant": "AAPTDEARAFAEKNGLSFIETSAL", "note": "[V2A]", "protein stability index": 2.51},
      {"variant": "AFPTDEARAFAEKNGLSFIETSAL", "note": "[V2F]", "protein stability index": 2.35},
      {"variant": "AQPTDEARAFAEKNGLSFIETSAL", "note": "[V2Q]", "protein stability index": 2},
      {"variant": "ARPTDEARAFAEKNGLSFIETSAL", "note": "[V2R]", "protein stability index": 2.56},
      {"variant": "AIPTDEARAFAEKNGLSFIETSAL", "note": "[V2I]", "protein stability index": 2.18},
      {"variant": "AEPTDEARAFAEKNGLSFIETSAL", "note": "[V2E]", "protein stability index": 2.97},
      {"variant": "AVPTHEARAFAEKNGLSFIETSAL", "note": "[D5H]", "protein stability index": 2.33},
      {"variant": "AVPTQEARAFAEKNGLSFIETSAL", "note": "[D5Q]", "protein stability index": 2.07},
      {"variant": "AVPTEEARAFAEKNGLSFIETSAL", "note": "[D5E]", "protein stability index": 2.35},
      {"variant": "AVPTMEARAFAEKNGLSFIETSAL", "note": "[D5M]", "protein stability index": 1.72},
      {"variant": "AVPTAEARAFAEKNGLSFIETSAL", "note": "[D5A]", "protein stability index": 1.77},
      {"variant": "AVPTGEARAFAEKNGLSFIETSAL", "note": "[D5G]", "protein stability index": 1.94},
      {"variant": "AVPTTEARAFAEKNGLSFIETSAL", "note": "[D5T]", "protein stability index": 2.52},
      {"variant": "AVPTLEARAFAEKNGLSFIETSAL", "note": "[D5L]", "protein stability index": 2.41},
      {"variant": "AVPTDEARAFAEKNTLSFIETSAL", "note": "[G15T]", "protein stability index": 1.7},
      {"variant": "AVPTDEARAFAEKNELSFIETSAL", "note": "[G15E]", "protein stability index": 3.33},
      {"variant": "AVPTDEARAFAEKNPLSFIETSAL", "note": "[G15P]", "protein stability index": 2.2},
      {"variant": "AVPTDEARAFAEKNSLSFIETSAL", "note": "[G15S]", "protein stability index": 2.06},
      {"variant": "AVPTDEARAFAEKNFLSFIETSAL", "note": "[G15F]", "protein stability index": 1.82},
      {"variant": "AVPTDEARAFAEKNDLSFIETSAL", "note": "[G15D]", "protein stability index": 3.87},
      {"variant": "AVPTDEARAFAEKNCLSFIETSAL", "note": "[G15C]", "protein stability index": 2.59},
      {"variant": "AVPTDEARAFAEKNGLSFITTSAL", "note": "[E20T]", "protein stability index": 2.41},
      {"variant": "AVPTDEARAFAEKNGLSFILTSAL", "note": "[E20L]", "protein stability index": 1.74},
      {"variant": "AVPTDEARAFAEKNGLSFIGTSAL", "note": "[E20G]", "protein stability index": 2.02},
      {"variant": "AVPTDEARAFAEKNGLSFIHTSAL", "note": "[E20H]", "protein stability index": 1.87},
      {"variant": "AVPTDEARAFAEKNGLSFIRTSAL", "note": "[E20R]", "protein stability index": 2.5},
      {"variant": "AVPTDEARAFAEKNGLSFIPTSAL", "note": "[E20P]", "protein stability index": 3.12},
      {"variant": "AVPTDEARAFAEKNGLSFIFTSAL", "note": "[E20F]", "protein stability index": 1.79},
      {"variant": "AVPTDEARAFAEKNGLSFINTSAL", "note": "[E20N]", "protein stability index": 2.24},
      {"variant": "AVPTDEARAFAEKNGLSFIWTSAL", "note": "[E20W]", "protein stability index": 1.44},
      {"variant": "AVPTDEARAFAEKNGLSFIYTSAL", "note": "[E20Y]", "protein stability index": 2.35},
      {"variant": "AVPTDEARAFAEKNGLSFIETSAH", "note": "[L24H]", "protein stability index": 4.06},
      {"variant": "AVPTDEARAFAEKNGLSFIETSAV", "note": "[L24V]", "protein stability index": 3.31},
      {"variant": "AVPTDEARAFAEKNGLSFIETSAQ", "note": "[L24Q]", "protein stability index": 3.47},
      {"variant": "AVPTDEARAFAEKNGLSFIETSAN", "note": "[L24N]", "protein stability index": 4.47},
      {"variant": "AVPTDEARAFAEKNGLSFIETSAI", "note": "[L24I]", "protein stability index": 2.34},
      {"variant": "AVPTDEARAFAEKNGLSFIETSAY", "note": "[L24Y]", "protein stability index": 3.04},
      {"variant": "AVPTDEARAFAEKNGLSFIETSAR", "note": "[L24R]", "protein stability index": 2.63},
      {"variant": "AVPTDEARAFAEKNGLSFIETSAW", "note": "[L24W]", "protein stability index": 2.72},
      {"variant": "AVPTDEARAFAEKNGLSFIETSAF", "note": "[L24F]", "protein stability index": 2.73},
      {"variant": "AVPTDEAPAFAEKNGLSFIETSAL", "note": "[R8P]", "protein stability index": 1.86},
      {"variant": "AVPTDEAVAFAEKNGLSFIETSAL", "note": "[R8V]", "protein stability index": 2.72},
      {"variant": "AVPTDEALAFAEKNGLSFIETSAL", "note": "[R8L]", "protein stability index": 2.16},
      {"variant": "AVPTDEADAFAEKNGLSFIETSAL", "note": "[R8D]", "protein stability index": 2.82},
      {"variant": "AVPTDEAQAFAEKNGLSFIETSAL", "note": "[R8Q]", "protein stability index": 2.66},
      {"variant": "AVPTDEARAFAEKNGLSFIETSEL", "note": "[A23E]", "protein stability index": 3.68},
      {"variant": "AVPTDEARAFAEKNGLSFIETSWL", "note": "[A23W]", "protein stability index": 1.55},
      {"variant": "AVPTDEARAFAEKNGLSFIETSFL", "note": "[A23F]", "protein stability index": 1.66},
      {"variant": "AVPTDEARAFAEKNGLSFIETSPL", "note": "[A23P]", "protein stability index": 2.82},
      {"variant": "AVPTDEARAFAEKHGLSFIETSAL", "note": "[N14H]", "protein stability index": 2.36},
      {"variant": "AVPTDEARAFAEKGGLSFIETSAL", "note": "[N14G]", "protein stability index": 2.15},
      {"variant": "AVPTDEARAFAEKSGLSFIETSAL", "note": "[N14S]", "protein stability index": 2.95},
      {"variant": "AVPTDEARAFAEKWGLSFIETSAL", "note": "[N14W]", "protein stability index": 1.74},
      {"variant": "AVPTDEARAFAEKCGLSFIETSAL", "note": "[N14C]", "protein stability index": 1.71},
      {"variant": "AVPTDEARAFAEKDGLSFIETSAL", "note": "[N14D]", "protein stability index": 3.62},
      {"variant": "AVPTDEARAFAEKRGLSFIETSAL", "note": "[N14R]", "protein stability index": 2.52},
      {"variant": "AVPTDEARAFAEKLGLSFIETSAL", "note": "[N14L]", "protein stability index": 2.03},
      {"variant": "AVPTDEARAFAEKQGLSFIETSAL", "note": "[N14Q]", "protein stability index": 2.85},
      {"variant": "AVLTDEARAFAEKNGLSFIETSAL", "note": "[P3L]", "protein stability index": 2.59},
      {"variant": "AVMTDEARAFAEKNGLSFIETSAL", "note": "[P3M]", "protein stability index": 2.47},
      {"variant": "AVRTDEARAFAEKNGLSFIETSAL", "note": "[P3R]", "protein stability index": 2.07},
      {"variant": "AVNTDEARAFAEKNGLSFIETSAL", "note": "[P3N]", "protein stability index": 2.77},
      {"variant": "AVCTDEARAFAEKNGLSFIETSAL", "note": "[P3C]", "protein stability index": 1.67},
      {"variant": "AVYTDEARAFAEKNGLSFIETSAL", "note": "[P3Y]", "protein stability index": 2.23}
    ]}
  ]
}
